System: T1, peptide substrate SEQ ID NO: 1 Lys-Lys-Gly-Phe-Pro-Arg-Gly-Gly-Asp-Cys
T1 sequence: KKGFPRGGDC

trypsin
limit of detection of trypsin (750 nM peptide, 60 min pre-exposure, 20 nm gold nanoparticles): the limit of detection of the colloidal gold nanoparticle-based colorimetric assay developed in the present invention for sensing trypsin is about 20 pM of trypsin | limit of detection of trypsin (750 nM peptide, 3 hours pre-exposure, 20 nm gold nanoparticles): from 20 pM to approximately 2 to 10 pM | limit of detection of trypsin (750 nM peptide, 3 hours pre-exposure, 30 nm gold nanoparticles): further improved from about 2 to 10 pM to a range of from 500 fM to 2 pM | ratio of the absorbance at 650 nm/absorbance at 520 nm (750 nM peptide, 60 min pre-exposure, trypsin up to 2 nM): As the amount of trypsin is increased the absorbance band shifts toward what the gold nanoparticles show in the absence of any peptide and the ratio approaches a value of about 0.05 | time for complete hydrolytic cleavage (gold nanoparticle aggregation, ratio of absorbance at 650 nm to 520 nm; 1000 nM peptide, 200 pM trypsin, 20 C): it took more than 60 min for complete hydrolytic cleavage of a solution of 1000 nM of the peptide substrate SEQ ID NO: 1 Lys-Lys-Gly-Phe-Pro-Arg-Gly-Gly-Asp-Cys by trypsin at a concentration of 200 pM

Reference: patent US20170226560
